The values that follow come from patent US20140010832A1.

Targets include Fibronectin; Tenascin C; Fibrinogen; Vitronectin; Osteopontin.
What all share (assay): ELISA; cytokine coated, ECM protein 0.02 to 320 nM, KD by non-linear fit

Fibronectin, sequence (P02751 32-2477): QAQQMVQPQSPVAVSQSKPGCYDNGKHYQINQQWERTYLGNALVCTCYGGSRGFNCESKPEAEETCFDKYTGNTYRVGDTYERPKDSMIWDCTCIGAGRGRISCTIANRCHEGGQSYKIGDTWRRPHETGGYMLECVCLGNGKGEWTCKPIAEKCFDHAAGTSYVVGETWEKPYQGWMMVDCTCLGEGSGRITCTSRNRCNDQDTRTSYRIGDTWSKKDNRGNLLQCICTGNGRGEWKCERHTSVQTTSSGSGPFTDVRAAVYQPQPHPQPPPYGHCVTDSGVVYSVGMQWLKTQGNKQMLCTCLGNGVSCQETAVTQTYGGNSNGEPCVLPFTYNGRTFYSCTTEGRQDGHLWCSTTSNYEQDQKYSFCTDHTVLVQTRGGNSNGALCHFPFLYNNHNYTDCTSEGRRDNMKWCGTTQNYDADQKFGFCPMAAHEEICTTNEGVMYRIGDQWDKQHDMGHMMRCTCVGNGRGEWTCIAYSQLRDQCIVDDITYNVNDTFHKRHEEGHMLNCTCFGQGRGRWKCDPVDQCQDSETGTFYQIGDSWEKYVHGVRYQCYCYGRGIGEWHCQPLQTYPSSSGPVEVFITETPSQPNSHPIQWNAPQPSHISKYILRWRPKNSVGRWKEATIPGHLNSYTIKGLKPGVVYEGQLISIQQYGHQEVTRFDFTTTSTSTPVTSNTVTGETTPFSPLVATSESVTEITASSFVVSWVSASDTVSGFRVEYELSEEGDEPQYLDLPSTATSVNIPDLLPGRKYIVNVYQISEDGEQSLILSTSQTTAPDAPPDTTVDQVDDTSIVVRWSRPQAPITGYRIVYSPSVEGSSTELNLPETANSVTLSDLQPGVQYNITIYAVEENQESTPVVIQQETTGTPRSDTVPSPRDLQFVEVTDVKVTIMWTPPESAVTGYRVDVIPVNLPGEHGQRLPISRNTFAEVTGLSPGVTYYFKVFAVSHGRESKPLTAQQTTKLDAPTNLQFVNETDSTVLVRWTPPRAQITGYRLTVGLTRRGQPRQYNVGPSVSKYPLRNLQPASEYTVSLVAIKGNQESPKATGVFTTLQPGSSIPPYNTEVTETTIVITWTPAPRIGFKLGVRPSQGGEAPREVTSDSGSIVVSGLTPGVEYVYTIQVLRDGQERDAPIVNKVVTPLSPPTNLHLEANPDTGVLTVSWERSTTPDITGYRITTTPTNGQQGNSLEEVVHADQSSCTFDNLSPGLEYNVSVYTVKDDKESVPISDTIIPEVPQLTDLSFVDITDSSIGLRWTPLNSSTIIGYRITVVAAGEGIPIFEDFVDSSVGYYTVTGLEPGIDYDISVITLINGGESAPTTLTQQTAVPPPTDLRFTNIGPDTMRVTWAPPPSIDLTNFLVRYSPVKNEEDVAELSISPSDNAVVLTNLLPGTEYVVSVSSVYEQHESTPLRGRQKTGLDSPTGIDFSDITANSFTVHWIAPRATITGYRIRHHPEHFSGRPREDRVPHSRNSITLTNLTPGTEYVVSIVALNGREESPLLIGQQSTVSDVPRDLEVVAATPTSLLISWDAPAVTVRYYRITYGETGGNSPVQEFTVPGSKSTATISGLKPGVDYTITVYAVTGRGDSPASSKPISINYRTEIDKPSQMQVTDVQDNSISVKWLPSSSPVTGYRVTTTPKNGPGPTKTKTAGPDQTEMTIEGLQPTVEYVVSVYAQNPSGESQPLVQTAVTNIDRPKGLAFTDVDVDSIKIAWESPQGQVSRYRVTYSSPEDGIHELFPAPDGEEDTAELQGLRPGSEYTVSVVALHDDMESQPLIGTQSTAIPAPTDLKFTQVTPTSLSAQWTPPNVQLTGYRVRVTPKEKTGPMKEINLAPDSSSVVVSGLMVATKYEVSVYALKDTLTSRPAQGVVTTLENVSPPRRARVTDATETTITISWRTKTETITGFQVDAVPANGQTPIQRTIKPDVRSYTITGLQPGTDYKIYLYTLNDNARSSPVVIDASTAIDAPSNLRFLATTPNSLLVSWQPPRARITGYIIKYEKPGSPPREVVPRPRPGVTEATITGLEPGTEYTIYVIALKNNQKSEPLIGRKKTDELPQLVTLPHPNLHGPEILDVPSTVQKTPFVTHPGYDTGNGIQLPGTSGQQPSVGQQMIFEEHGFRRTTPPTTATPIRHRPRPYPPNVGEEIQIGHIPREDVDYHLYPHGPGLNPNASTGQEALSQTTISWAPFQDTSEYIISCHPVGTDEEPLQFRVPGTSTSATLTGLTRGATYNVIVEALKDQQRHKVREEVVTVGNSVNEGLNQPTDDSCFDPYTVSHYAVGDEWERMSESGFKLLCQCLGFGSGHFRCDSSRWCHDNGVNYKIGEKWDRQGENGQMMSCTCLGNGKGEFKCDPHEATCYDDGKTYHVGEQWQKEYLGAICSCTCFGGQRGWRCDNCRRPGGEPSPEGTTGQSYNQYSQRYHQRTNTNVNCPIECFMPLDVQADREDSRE
Vitronectin, sequence (P04004 20-478): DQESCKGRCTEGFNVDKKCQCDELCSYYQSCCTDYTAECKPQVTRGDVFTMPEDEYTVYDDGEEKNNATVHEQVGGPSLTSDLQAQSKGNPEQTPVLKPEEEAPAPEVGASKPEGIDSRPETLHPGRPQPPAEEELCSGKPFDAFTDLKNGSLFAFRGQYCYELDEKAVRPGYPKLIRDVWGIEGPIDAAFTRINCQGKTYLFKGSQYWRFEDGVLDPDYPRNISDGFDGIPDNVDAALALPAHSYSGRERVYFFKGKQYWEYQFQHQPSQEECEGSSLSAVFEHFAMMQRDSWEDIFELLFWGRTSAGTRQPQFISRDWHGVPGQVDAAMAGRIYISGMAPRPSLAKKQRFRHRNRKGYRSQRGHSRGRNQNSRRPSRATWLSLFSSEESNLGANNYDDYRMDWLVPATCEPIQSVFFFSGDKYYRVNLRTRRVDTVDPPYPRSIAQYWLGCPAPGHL
Tenascin C, sequence (P24821 23-2201): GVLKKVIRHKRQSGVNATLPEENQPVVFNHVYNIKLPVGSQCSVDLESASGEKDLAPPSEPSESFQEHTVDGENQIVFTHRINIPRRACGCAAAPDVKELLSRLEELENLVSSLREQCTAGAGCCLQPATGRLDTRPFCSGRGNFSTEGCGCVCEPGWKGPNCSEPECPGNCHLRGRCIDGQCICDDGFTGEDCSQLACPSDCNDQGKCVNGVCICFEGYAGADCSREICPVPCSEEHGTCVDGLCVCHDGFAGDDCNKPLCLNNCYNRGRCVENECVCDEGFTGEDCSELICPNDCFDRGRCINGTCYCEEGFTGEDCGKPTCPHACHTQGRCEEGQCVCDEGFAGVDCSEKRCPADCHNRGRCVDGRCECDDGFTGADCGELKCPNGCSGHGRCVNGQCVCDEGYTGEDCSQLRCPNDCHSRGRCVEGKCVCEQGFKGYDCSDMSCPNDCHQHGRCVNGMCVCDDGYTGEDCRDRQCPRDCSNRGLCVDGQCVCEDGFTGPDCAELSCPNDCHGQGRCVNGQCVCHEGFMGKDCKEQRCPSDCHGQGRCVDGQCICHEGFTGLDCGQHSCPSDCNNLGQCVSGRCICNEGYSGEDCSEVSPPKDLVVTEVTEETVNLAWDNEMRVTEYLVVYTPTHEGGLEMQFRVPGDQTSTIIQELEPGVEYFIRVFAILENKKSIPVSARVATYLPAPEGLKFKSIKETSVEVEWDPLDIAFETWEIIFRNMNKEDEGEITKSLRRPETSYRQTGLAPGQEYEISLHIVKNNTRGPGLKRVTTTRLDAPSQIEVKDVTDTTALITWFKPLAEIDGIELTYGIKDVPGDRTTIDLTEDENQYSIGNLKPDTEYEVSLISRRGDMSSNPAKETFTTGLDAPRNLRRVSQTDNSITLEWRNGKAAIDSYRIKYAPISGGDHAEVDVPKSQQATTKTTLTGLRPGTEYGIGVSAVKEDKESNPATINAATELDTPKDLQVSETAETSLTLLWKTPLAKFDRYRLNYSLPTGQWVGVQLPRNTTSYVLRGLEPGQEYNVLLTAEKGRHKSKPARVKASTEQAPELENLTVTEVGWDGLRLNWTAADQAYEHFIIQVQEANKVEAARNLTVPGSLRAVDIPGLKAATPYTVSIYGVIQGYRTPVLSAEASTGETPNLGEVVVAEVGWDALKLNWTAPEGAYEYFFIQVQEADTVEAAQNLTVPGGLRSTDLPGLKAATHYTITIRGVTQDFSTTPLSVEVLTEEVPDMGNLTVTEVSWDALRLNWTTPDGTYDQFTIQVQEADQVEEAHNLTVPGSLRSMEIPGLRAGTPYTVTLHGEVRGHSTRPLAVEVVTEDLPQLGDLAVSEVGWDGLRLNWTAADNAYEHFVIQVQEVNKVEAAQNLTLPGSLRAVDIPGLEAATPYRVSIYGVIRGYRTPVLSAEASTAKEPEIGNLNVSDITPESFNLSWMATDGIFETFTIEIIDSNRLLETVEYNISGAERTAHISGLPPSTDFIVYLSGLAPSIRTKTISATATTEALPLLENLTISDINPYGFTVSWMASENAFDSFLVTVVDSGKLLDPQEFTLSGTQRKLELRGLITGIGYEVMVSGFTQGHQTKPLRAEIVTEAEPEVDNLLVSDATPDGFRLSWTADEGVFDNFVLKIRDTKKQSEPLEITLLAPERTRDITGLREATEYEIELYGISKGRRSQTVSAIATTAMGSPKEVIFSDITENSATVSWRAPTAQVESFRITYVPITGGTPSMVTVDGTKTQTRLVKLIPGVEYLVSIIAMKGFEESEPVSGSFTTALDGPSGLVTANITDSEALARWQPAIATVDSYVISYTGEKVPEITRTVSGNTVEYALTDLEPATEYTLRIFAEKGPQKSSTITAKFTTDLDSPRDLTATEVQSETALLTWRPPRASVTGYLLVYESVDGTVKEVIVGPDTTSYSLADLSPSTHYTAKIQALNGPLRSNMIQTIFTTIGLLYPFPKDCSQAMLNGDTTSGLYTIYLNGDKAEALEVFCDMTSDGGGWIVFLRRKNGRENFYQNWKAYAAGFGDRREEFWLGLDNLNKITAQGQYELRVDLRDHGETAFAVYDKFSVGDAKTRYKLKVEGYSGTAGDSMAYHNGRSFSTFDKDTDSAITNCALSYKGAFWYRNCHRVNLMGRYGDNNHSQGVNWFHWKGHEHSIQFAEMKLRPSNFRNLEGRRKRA

B1: human BMP-2 (ligand)
chain: QAKHKQRKRLKSSCKRHPLYVDFSDVGWNDWIVAPPGYHAFYCHGECPFPLADHLNSTNHAIVQTLVNSVNSKIPKACCVPTELSAISMLYLDENEKVVLKNYQDMVVEGCGCR
A word on the Kd: it is the constant that tells how readily two partners part at equilibrium. A higher Kd goes with a looser complex. With B1, the Kd with Fibronectin is 19.2 nM; with Tenascin C it was 25.5 nM; with Fibrinogen, 47.1 nM; in the assay with Vitronectin it was 94.7 nM.

B2: human PDGF-BB-PlGF2123-144 (ligand)
chain: SLGSLTIAEPAMIAECKTRTEVFEISRRLIDRTNANFLVWPPCVEVQRCSGCCNNRNVQCRPTQVQLRPVQVRKIEIVRKKPIFKKATVTLEDHLACKCETVAAARPVTRRRPKGRGKRRREKQRPTDCHL
Regarding B2, the dissociation constant (Kd) is 4.5 nM with Fibronectin; 6.3 nM in the assay with Tenascin C; 3.2 nM in the assay with Fibrinogen; 3.3 nM with Osteopontin; 1.2 nM with Vitronectin.

B3: human BMP-2-PlGF2123-144* (ligand)
chain: QAKHKQRKRLKSSCKRHPLYVDFSDVGWNDWIVAPPGYHAFYCHGECPFPLADHLNSTNHAIVQTLVNSVNSKIPKACCVPTELSAISMLYLDENEKVVLKNYQDMVVEGCGCRRRPKGRGKRRREKQRPTDSHL
Regarding B3, the Kd was determined as 5.2 nM with Fibronectin; 6.9 nM with Tenascin C; 2 nM in the assay with Fibrinogen; 11.2 nM in the assay with Osteopontin; 2.4 nM in the assay with Vitronectin.
